Laboratory results published in paper PMC4627094.

Tests used:
[1] = target: T1, APOBEC3G (A3G) (human, UniProt Q9HC16 1-384); assay: competition (fluorescence anisotropy); vs labeled 25 nt Sub ssDNA (N1); 40 mM Tris pH 7.2, 50 mM NaCl, 10 mM MgCl2, 1 mM DTT, 0.1% Triton X-100, 2% glycerol, 37 C 20 min; FA with 2 nM labeled NA; UV cross-linking in 1X PBS, 37 C 20
[2] = target: T1, APOBEC3G (A3G); assay: competition (fluorescence anisotropy); vs labeled 25 nt Sub RNA (N2); 40 mM Tris pH 7.2, 50 mM NaCl, 10 mM MgCl2, 1 mM DTT, 0.1% Triton X-100, 2% glycerol, 37 C 20 min; FA with 2 nM labeled NA; UV cross-linking in 1X PBS, 37 C 20
[3] = target: T1, APOBEC3G (A3G); assay: fluorescence anisotropy; 10 mM MgCl2; 40 mM Tris pH 7.2, 50 mM NaCl, 10 mM MgCl2, 1 mM DTT, 0.1% Triton X-100, 2% glycerol, 37 C 20 min; FA with 2 nM labeled NA; UV cross-linking in 1X PBS, 37 C 20
[4] = target: T1, APOBEC3G (A3G); assay: EMSA; 37 C, 2.0 uM RNA; 40 mM Tris pH 7.2, 50 mM NaCl, 10 mM MgCl2, 1 mM DTT, 0.1% Triton X-100, 2% glycerol, 37 C 20 min; FA with 2 nM labeled NA; UV cross-linking in 1X PBS, 37 C 20

T1 sequence (Q9HC16 whole entry): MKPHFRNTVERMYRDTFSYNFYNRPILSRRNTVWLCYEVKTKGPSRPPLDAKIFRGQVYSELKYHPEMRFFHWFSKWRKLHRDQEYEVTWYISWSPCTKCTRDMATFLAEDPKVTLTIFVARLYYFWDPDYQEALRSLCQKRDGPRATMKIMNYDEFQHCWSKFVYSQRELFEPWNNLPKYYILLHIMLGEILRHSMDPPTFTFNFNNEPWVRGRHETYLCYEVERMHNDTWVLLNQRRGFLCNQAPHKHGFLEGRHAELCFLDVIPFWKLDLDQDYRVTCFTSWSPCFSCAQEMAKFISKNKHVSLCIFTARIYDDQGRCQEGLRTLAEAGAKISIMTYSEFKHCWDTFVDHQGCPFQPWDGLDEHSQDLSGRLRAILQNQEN

B1: 25 nt Sub RNA, unlabeled (ssRNA)
RNA: UUAUUUUUAAGGAUUUAUUUAUUUA
IC50 [1]: 57 nM | IC50 [2]: 115 nM

B2: 15 nt Sub ssDNA, Alexa 647 (ssDNA)
DNA: TTATTUUUAAGGATT
modifications: dU at positions 6-8
Kd [3]: 10 nM

B3: 25 nt Sub RNA, Alexa 647 (ssRNA)
RNA: UUAUUUUUAAGGAUUUAUUUAUUUA
Kd [3]: 2.9 nM

B4: 25 nt Sub ssDNA (unlabeled or 32P) (ssDNA)
DNA: TTATTUUUAAGGATTTATTTATTTA
modifications: dU at positions 6-8
IC50 [1]: 15 nM | IC50 [2]: 22 nM

B5: 15 nt Sub RNA, Alexa 647 (ssRNA)
RNA: UUAUUUUUAAGGAUU
Kd [3]: 4.4 nM

B6: 25 nt Sub ssDNA, Alexa 647 (ssDNA)
DNA: TTATTUUUAAGGATTTATTTATTTA
modifications: dU at positions 6-8
Kd [3]: 3.8 nM

B7: 25 nt ApoB RNA (ssRNA)
RNA: CAUAUAUGAUACAAUUUGAUCAGUA
binding result [4]: binds
